Key:
Assay in all cases: BLI; glycopeptides immobilized via biotin on a streptavidin biosensor; series of 2-fold dilutions of antibody
[1] = biological target: acyclic H1 variant (peptide 7)
[2] = biological target: H22 glycopeptide (peptide 2)
[3] = biological target: H1 mutant without the glycans at the second and third glycosylation sites (peptide 4)
[4] = biological target: H1 mutant with IGDIR changed to IAAIA (peptide 5)
[5] = biological target: L1 glycopeptide (peptide 8)
[6] = biological target: random scrambled version of the H1 sequence containing three glycans and cyclization (peptide 6)
[7] = biological target: H1 glycopeptide (peptide 1)
[8] = biological target: H1 mutant without the glycan at the first of the three glycosylation sites (peptide 3)

B1: PGT128 (antibody, V domains shown)
VH: QPQLQESGPTLVEASETLSLTCAVSGDSTAACNSFWGWVRQPPGKGLEWVGSLSHCASYWNRGWTYHNPSLKSRLTLALDTPKNLVFLKLNSVTAADTATYYCARFGGEVLRYTDWPKPAWVDLWGRGTLVTVSS
VL: QSALTQPPSASGSPGQSITISCTGTSNNFVSWYQQHAGKAPKLVIYDVNKRPSGVPDRFSGSKSGNTASLTVSGLQTDDEAVYYCGSLVGNWDVIFGGGTKLTVL
- Kd [1]: 90 nM
- Kd [2]: 16.9 nM
- fold decrease in binding against H1 (peptide 1) [3]: 40 fold
- fold decrease in binding against H1 (peptide 1) [4]: 26 fold
- Kd [5]: 2.37 nM
- Kd [6]: 251 nM
- Kd [7]: 0.52 nM
- fold loss of recognition against H1 (peptide 1) [8]: 2 fold

From PMC12291119, “In Vitro Selection of Cyclized, Glycosylated Peptide Antigens That Tightly Bind HIV High Mannose Patch Antibodies” (ACS Central Science, 2025)
